# Starred links: 1 amine or outer side, 2 acyl side, 3 side chain; linkers in the order of their positions; H or OH if unused. Positions of bridges follow the written chain, without caps; N, C: chain ends. Non-standard residues stand in square brackets, D forms with d. Groups on a side chain read outwards from the residue. Primed or numbered codes have the meaning given here. No end group written: not given here. *: point of attachment. Npc″ = L-nipecotic acid, O=C([C@H]1CCCN([*:1])C1)[*:2]; PEG12 = NCCOCCOCCOCCOCCOCCOCCOCCOCCOCCOCCOCCOCCC(=O)O; Palmitoyl = CCCCCCCCCCCCCCCC(=O)*; NMeF = CN[C@@H](Cc1ccccc1)C(=O)O; β3hF = N[C@H](CC(=O)O)Cc1ccccc1; Isovaleryl = CC(C)CC(=O)*; Npc = nipecotic acid
# T1: human ferroportin (SLC40A1) fused in frame with the GFP protein, stably expressed in HEK293 cells (human, UniProt Q9NP59 1-571)
# T1 sequence (looked up): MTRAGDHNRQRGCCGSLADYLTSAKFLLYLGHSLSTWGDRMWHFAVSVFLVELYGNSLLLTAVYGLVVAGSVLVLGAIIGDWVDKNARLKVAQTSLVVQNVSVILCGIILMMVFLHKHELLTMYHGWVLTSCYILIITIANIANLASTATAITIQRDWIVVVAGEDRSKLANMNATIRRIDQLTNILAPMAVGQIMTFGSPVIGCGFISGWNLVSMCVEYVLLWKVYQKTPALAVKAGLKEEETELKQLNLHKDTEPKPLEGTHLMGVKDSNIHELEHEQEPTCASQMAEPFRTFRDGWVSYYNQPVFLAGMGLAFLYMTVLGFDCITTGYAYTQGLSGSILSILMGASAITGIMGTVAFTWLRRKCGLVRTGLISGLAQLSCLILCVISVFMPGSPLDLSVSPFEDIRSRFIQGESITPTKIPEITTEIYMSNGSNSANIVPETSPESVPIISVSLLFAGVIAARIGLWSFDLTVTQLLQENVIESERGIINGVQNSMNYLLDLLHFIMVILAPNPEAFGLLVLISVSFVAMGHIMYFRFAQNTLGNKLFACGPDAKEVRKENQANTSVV
# Target: T1, human ferroportin (SLC40A1) fused in …
# Assay: cell-based or functional assay
row,Binder,FPN IC50
1,DTHXPCIKXKKC (N-terminal isovaleric acid; Dpa 4; (D)Lys 8; bhPhe 9; Lys(Peg11-Palm) 10; dLys_Ac 11; C-terminal amide; disulfide between the two Cys (6 and 12)) [Compd ID 175],5 nM
2,Isovaleryl-DTH[β3hF][Npc]CI[dK]FK([PEG12-Palmitoyl])C[dK]-NH2 (disulfide 6-11) [Compd ID 172],39 nM
3,DTHXPCIKFKCK (N-terminal isovaleric acid; bhPhe 4; (D)Lys 8; Lys(Peg11-Palm) 10; (D)Lys 12; C-terminal amide; disulfide between the two Cys (6 and 11)) [Compd ID 171],47 nM

# Continued, values first:
row,FPN IC50,Binder
1,10 nM,DTHXPCIKXKCK (N-terminal isovaleric acid; Dpa 4; (D)Lys 8; bhPhe 9; Lys(Peg11-Palm) 10; (D)Lys 12; C-terminal amide; disulfide between the two Cys (6 and 11)) [Compd ID 170]
2,12 nM,DTHXPCIKXKKC (N-terminal isovaleric acid; D-Asp 1; Dpa 4; (D)Lys 8; bhPhe 9; Lys(Peg11-Palm) 10; (D)Lys 11; C-terminal amide; disulfide between the two Cys (6 and 12)) [Compd ID 169]

# Target: T1, human ferroportin (SLC40A1) fused in …
# Assay: cell-based or functional assay
# Remark: another data set of the same source
Potency EC50 (nM),Potency EC50,Binder
> 10000 nM,–,FICIPFHTD (all residues D-amino acids (retro inverse); free N-terminus (Hy-); C-terminal amide) [RI-Mini Hepcidin]
–,712 nM,H-DTHFPICIF-NH2 [Mini-Hepcidin 1-9]
–,30 nM,DTHFPCIKFKPRSKGCK (N-terminal isovaleric acid; Lys[PEG11-Palm] 10; C-terminal amide; disulfide between the two Cys (6 and 16)) [Ref. Compd 1]

# Target: T1, human ferroportin (SLC40A1) fused in …
# Assay: cell-based or functional assay
# Remark: another data set of the same source
row,Binder,FPN IC50
1,DTHFPCIIFK (N-terminal isovaleric acid on each monomer; D-Lys 10; the two monomers linked through IDA-[(b-Ala)-Palm]; -NH2) [Compd ID 509],433 nM
2,Isovaleryl-DTHFPCIK[Phe(4-OCH2CH2NH2)]K-{Lys(isoGlu-Palm)-NH2} (also: dimer: two monomers linked through K-Lys[isoGlu-Palm]-NH2) [Compd ID 504],20 nM
3,DTHFPCIKX (N-terminal isovaleric acid on each monomer; NMe-Phe 9; the two monomers linked through IDA-[(b-Ala)-Palm]; -NH2) [Compd ID 507],10 nM
4,DTHFPCIKX (not fully specified; N-terminal isovaleric acid on each monomer; D-Lys 8; b-homoPhe 9; the two monomers linked through IDA-[(b-Ala)-Palm]; -NH2) [Compd ID 517],5 nM
5,Isovaleryl-DTHF[Npc″]CI[dK][NMeF] (not fully specified (C-terminus); also: dimer: two monomers linked through IDA-[(b-Ala)-Palm]-NH2) [Compd ID 518],8 nM
6,Isovaleryl-DTHFPCI[dK]F-{IDA(βAla-Palm)-NH2} (also: dimer: two monomers joined through IDA) [Compd ID 506],4 nM

# The remaining lines, values ahead:
row,FPN IC50,Binder
1,4 nM,DTHFPCIKX (N-terminal isovaleric acid on each monomer; D-Lys 8; NMe-Phe 9; the two monomers linked through IDA-[(b-Ala)-Palm]; -NH2) [Compd ID 514]
2,9 nM,DTHFPCIKX (N-terminal isovaleric acid on each monomer; a-MePhe 9; the two monomers linked through IDA-[(b-Ala)-Palm]; -NH2) [Compd ID 508]
3,6 nM,DTHFPCIKX (N-terminal isovaleric acid on each monomer; b-homoPhe 9; the two monomers linked through IDA-[(b-Ala)-Palm]; -NH2) [Compd ID 516]
4,26 nM,DTHXPCIKX (N-terminal isovaleric acid on each monomer; BIP 4; D-Lys 8; NMe-Phe 9; the two monomers linked through IDA-[(b-Ala)-Palm]; -NH2) [Compd ID 515]
